experiment: soluble on expression in E. coli; label from the status in PepcDB or PDB records

Soluble on expression in E. coli, not soluble:
MGSDKIHHHHHHMRDQQLFLFGGGPPFTPMLCRQFVSCLKQSGPVALLYVPRPGSNWDDYAPIYTDALTANGVTDFFHFPLSARPTSEQLEQLAGSAGIIISGGETERYQQFIVGTPIGTIIQERFQHGVPVAGFSAGALLTPDECRIPVIDQRNGQALVLKGLGLLTDAVISVHYDTWQEETNLSDAFMKTASNFGYGLPERSGIHLKNGQLMQQEGPEVVLLRQKGEYI
MGSDKIHHHHHHMRGVLTMIRLFKAIPELELPVYSGEDSPVDGTEKTTGFLISNHVPGEQVEETLLVASAEIKTSQTGREWLQFTFNSPSGSCKGKQWLNQGTAEEAMRPYLETGIVHVSAKVDEYPVDSGNKSLTVQTVKAVHDQSGTAYLPQMPAGESAKDYRDQLIGLIEKMETPLRQVAHRVVSAYWDDFSTRPAALYHHHAYIGGLLKHTACMMTIGFGICQSERPDLTLLQCIQEAEADHKNDLFQAGERDMRQFAWDDSFDALYQSARSIALLNERPHQDELLLGILLHDIGKIFEYTHLGASGDRFSRLVQTEPASEKLSGIALDPNGVLIGHMPYGCFVLEQALQTEAVRLPVDQYHRLMHMILSHHGKKEWGSSVTPQTTDAWYLHAIDLLDARKEKWRQSQLT
MGSDKIHHHHHHMRIAIIAITRNGARLGTQLRDGLGSAELYVLQKFAGQAGTGAVPFAGELKGLVAELWPAFDGFVFIMATGIVVRMVAPHLVAKDLDPAVVVMDDAGKFAVSLLSGHLGGANELACRCAFVTGAREVITTATDANNLPSFDMLAKEEGWAIDDLCRVKTLNALILEGEEIAVVDPTDRVRTAFHGTARLTFHDTFVEALQSGAKGFVFVTNRRLPPQAQADSLLILRPRNLALGIGCNSGTGAEEIAAVVGAQMKRLFLSLKSVACIGSAVAKQDEAGLLAFAREHGLPLRFFESGELNSVTVPSPPSAHALEAIGATGVAEPAAVLASNGGRLLLKKIKSGNVTLAIAEIP
MGSDKIHHHHHHMRIDIDAFNVLQVLVEEGSFAKASERLHKAQSAVSYQVKKLEQHLGVTLFNRDHYRAELTPEGKVILAEGQRLLQHLANIEHLASRFSQGWEPKLELVIDGALPMEPIMTALKRMSEHNIPTKVQLNMEFLGGVQHRFERDQADLMLVKDYRTGPSYHPKPLPTITSVLVASSQHPLSLLKEISLPELQQHVELTIEDSSPGKRDRDEMQFGGDKVFYLSGFIMKKNALLKGLGFGWMPDFLIAEELHQRQLIEVDFIGGNRFSFTPQLVSTLERPLGRAGQLFTELILEEFAQYQLQHQSGLSGAGLG
MGSDKIHHHHHHMRIEVWGGAGEYGRSCYFVKNKETKILFDCGINRSYEDSYPKIEREVVPFLDAVFLSHIHEDHTMGLPLLAKYGYKKKIWTTRYTKEQLPAYYEKWRNYNLAQGWHVPYTDQHVKDLNYVYIDEISNPNEWVQITPTLRFQWGYSGHVLGAVWFLLDMSHTYVFYSGDYSAESNILRANLPEKLHGDIKVAIVDAAYHTDDVSQHERINELCTEIERAAGNKGITLLPLPPLGRAQDIVLYLYKKYKELPIIVDQEILDGFQQMFAYKDWIKNNEELEELMESLKRNIIVMDDDSGTQHSYGIVVMSDANMQTKRAQLYYEQLRHDERNSIIFTGHIAKGSFAEKVLKERVGKECRVKRVPYKVHQSIRDVKEMLNTLSPEHTVLVHALKEDTDRLQKKLSTAGYENVYSLTMERIEVI
MGSDKIHHHHHHMRIGLFTDTYFPQVSGVSTSIRTLKEGLEKEGHEVYIFTTTDRNVKRFEDPTIIRLPSVPFISFTDRRVVYRGLISAYRIAKDYELDIIHTQTEFSLGLLGKLVAKALRIPVVHTYHTQYEDYVGYIAKGKLIKPSMVKYIMRTYLSDLDGVICPSRIVLNLLDGYGVKIPKQVIPTGIPVENYRREDISEETIKNLRTELGLADNDTMLLSLSRVSFEKNIQAILMHLSAVVDENPHVKLVIVGDGPYLSDLKELVHSLELENSVIFTGMVEHSQVAIYYKACDFFISASTSETQGLTYIESLASGRPIIAQSNPYLDDVISDKMFGTLYKKESDLADAILDAIAETPKMTQEAYEQKLYEISAENFSKSVYAFYLDFLISQKASVKEKVSLTIGNKDSHSTLRFVRKAVYLPKKVFTFTGRASKKVVKAPKRRISSIRDFLD
MGSDKIHHHHHHMRKKIVFIIRDLGYGGAQRQLITLVKNLDKQIFNTTVIFFYANGSLQKDLENNNIQTICLEKRGRWDIFGFLWRLMGHLKRIQPDSLHGYLSESNLLTIFLKPFFLSTSIIWGIRDSNISLDSYDWLDRLIFEIECLLSRFVDLIIVNSHAGQAYHLSHGFPAKKMVVIPNGIDTERFQPNSEAGLRVRTEWRISKDTILIGLIGRLDPMKDHPTFLKAVALLCKERENVCFVCVGIGTHEYAQELYQLAEELEVAEKVIWAGGRADMPDIYNALDITCSSSSYGEGFSNVIGEAMACGVPCVVTDVGDSAWIIDDTGIVVPPNNPEALKAGITSLINIISSKSYSSCHIRQRIISHFSVLNLSLKTQNSLLSINVL
MGSDKIHHHHHHMRLDHLRLQNFRCYEDAHFDFQPGFNLVVGVNGSGKTSLLLGVAECLIPYGNAMGQGQEILSKEDVRFVIDRHEGRSRFERKFPVFIRADGDIFDLPNWRAVRLLEPWEGGVDPSSLSHLSAVLARNNAGEQIDFPVLAFYRANRRWSSARISAEFAAQQRTSRFDGYANWFDAVADLRDFESWLIARTLERLQDRLDSTPTVEREDELEWVNRAIRLAIPDAHDLRYDLRLQSLLVDMGEGNAVPFHELSDGQRSLIALIADIARRMCVLNPHIGKDVLANTGGIVIIDELDIHLHPAWQRNIAPTLKKAFPKVQFIATSHSPQVIGSLQPGEVILLKNGDSSHPRATYGLDSSTILEEVMGVPQREPEIEVLLDELFSTLENNELEKARLQLDALKKKAPDLPEFAGAEALLKRKELIGR
MGSDKIHHHHHHMRLGVNEAVELSLGELQNTPSISYFNSIVLSLNKVQKGSLFVAKDHTLIPKALELGAYGILYTGEYPVSDRDVAWIKLKDIEHSLNHLFKFCLLNERVVGALLSPIELEIASKIMVSNFVWCLKESLEDLFIIEGCKIAFFDKLEWLHLFYKQEHLKEDLKESCLIILNQSFFCSALVYEKQEYEFKMPCIFLGSLKRVIQLCEKLQIEFDLNLLGKKEYPLDHCKPFFVNKNLEIAPYGTTARVIVAETSKELFEMMLQKAFEILSWGKIVVFCRKNSAAFFKKTNPYFYTTQNNLKEQLKNLAFNFAFIHGISSHHLESLLNPPFFKKTPTLW
MGSDKIHHHHHHMRLTIHHTTRYRFDEPVSFGLQQLRKTPKTNTNQQVVEWQTRIIGGQKEVSFDDHHHNVTELISFEPGVTELELVSEGVVELTDTHGVVGRHRGPSPLWLYARPTVLTEARAGVRELIRDLDDSNPVDMLHQLSARIREAITYQIGVSELGWSAEDAIQSAHGVCQDHAHVFIACARKLGLPARYVSGYLMLDDRTTQDAMHAWAEAHVEGLGWVGFDVSNGISPDARYVRVATGLDYSDAAPVSGTRIGGAGEALDVQIEVAQQ
MGSDKIHHHHHHMRNWLLPEYIEDVLPRDAYRIEKIRRLIMDMLFAHGYQFVMPPLLEYVESLLAGSGSGMNLRMFKVVDQLSGRMMGLRADMTPQAARIDAHLLNISGVTRLCYASSVVHTVPDEITRTREPFQVGAELYGHSGIESDLEIQCLLLECLSVSGIHSIHLDLGHIRVFRSLIRDSGIKPEFEMELYAALWAKDISSLKELVRTGLNKRLTRSVQNALLLLPELYGDGTVLLSARQHLPDFPEIGEALDQLEHVARILQPYVDRITFDLADLRGYHYHTGMVFAVYTPGCPAPIALGGRYDEIGKSFGRARPATGFSLDLKQLSQLTDMNGYPSGILAPWKPEDEKLAAMVRQLRAEGHIVVTELPGEENQEVTGCDRKLVFRNGNWEIDPVTG
MGSDKIHHHHHHMRPATALSVTACGPVSTSRPRAASRAAIRLSSGERRFLIDIDVSKPRLRPMTAMTPTLALERSAASGKVAPTPADLSITVRDRRFGRNSPPGRWWLAGDPVATAWHNALSATFPRGEAFFIEAVKAHREGASPKLEAEIRAFVKQEINHTREHIAFNRAAENAGYDIARIDKRVEEMLALTKDRPVILNLAATMALEHYTAMMAHEFLANPAHFAGAEQEAADMWRWHAIEEIEHKGVAYDTWLHATRDWSRWKRWKVKSLMMVVVTKNFITHRVEDTLDLLAQDGLTGAKWKWRLAAYLLWKPGVIRRILPAWLGYFLPGFHPWKHDDRALIGKADSEFTDAVMPG
MGSDKIHHHHHHMRPTQKGDYLNPMSDLFQDYSEAAARSGAYDEMFAQGHVARRSYGQVSGALRELSLADVTARADSMARTFLDRGVTFDYAGEERPFPLDIVPRVIPADEWNVLERGVAQRVKALEAFLNDVYGRMAVVTDGVIPRQLVTTSAHFHRAVHGFEPSGGVRVHVSGIDVVRDAAGTFRVLEDNVRVPSGVSYVLENRRAMAKGLPEAFGQQHIRPVEEYPRRLLSALRKTAPAGVDDPTVVVLTPGVFNSAYFEHTLLAGLMGVELVEGRDLICRGNRVYMRTTAGEQRVDVIYKRIDDDFLDPLQFRSDSMLGCPGLVNAARAGGVTIANAVGNGVADDKLVYSYVPDLIRYYLHEEPIIANVDTFRLEEKEAREHVLDRLDELVVKPVDGSGGKGLVIGPDATKDELDALRKRVIADPRGWIAQPVLQLSTVPTLSGDKFGPRHVDLRPFAVNDGDDVWVLPGGLTRVALKEGSLIVNSSQGGGSKDTWVLADSPQLPAEIIPRQSVTVREQVSVWPVESNWRDRQTEQQQ
MGSDKIHHHHHHMRRCPLCTSEETAPFYQDRKRCIYRCKRCMLLFADANSHLPPSAEVKRYRSANSKDKPLQQFLSSLITQCEQQVQGPLLGLNFGRLLNPQAIDAIKARGHQLNQYDPHFAPDHTLLRLEYDFICCYRVFEHFRFPGKEWQLLCSLLKPGGWMAISTQLLTELQGFPKWHHKNNLTHVSFYQQATFQYLASQAEFRLLFASKDLILVQKPTGSGITRDPSSLI
MGSDKIHHHHHHMRRSDGRLLKSLSPFVRIIPHIMTKRNDAQNFYKQVVAVDKIDQYIKEKKDQGIRLNYLHLFIAVYVRVLAQRPQLNRFIMNNKIYTRYDIRISMAIKRLLKDDGEETTVKFLFSGLESIEEIVKIVDQTIEEGCAAGAANEVDTIAQRIMALPNSQVKLLVGTLKWMDRHNLLPKKIIEASPFHTSLFFTYLKSINLDFIYHHLYDFGTTGIFVALGKSKKLPVVEEDQVVVKKCCEIGYVLDERICDGLYYSNSFKLVKKYLANPYLLDERLEKVEEDVN
MGSDKIHHHHHHMRSNNNNPLTRDEILSRYFPQYRPAVATSQGLSGGSCIIAHDTHRVVLRRHHDPDAPPAHFLRHYRALSQLPASLAPRALFYTPGWMAVEYLHGVVNSALPDADELAALLYHLHQQPRFGWRIALSPLLAQYWSCCDPARRTPFWLRRLKQLQKNGEPRPLRLAPLHMDVHGDNIVLTSAGLRLIDWEYAGDGDIALELAAVWVEDERQHRQLADAYAARARIDARQLWRQIRLWHPWVIMLKAGWFEYRWRQTGEQQFIRLADETWRQLRMKG
MGSDKIHHHHHHMRSPNFYTYAFLNTPDVPLRLPSGNLGQLLLINGNNISAVVEPGISLESSQNNDEEVIKMVLAHDRVICELSQQTTVLPLRFGTYFNSEETLLNHIESHAQEYQKKLDNIQGKTEYTLKLIPRKFEELAKISGGHGRDYFLAKKLHYEHQKSFIGDQNREKHHLINLMMDIYRSSAIIQDYVEEVRLHLLVDRHDKALLFKQVLTLQEKCPHWNLILGEPLPPYHFV

Source: the DeepSol protein solubility set
